The source of these data is patent US20250034239A1 (LINNO PHARMACEUTICALS, published 2025).

B1: SLN-6043 humanized VHH-Fc (Fc fusion)
chain: EVQLVESGGGVVQPGGSLRLSCAASGFTSDNCAVHWVRQAPGKGLEWVSSISSDDSTRYADSVKGRFTISRDNSKNSLYLQMNSLRTEDTALYYCQTKWPCTYRRGGSAYRPAVVWGQGTLVTVSS
notes: tested as VHH-Fc; also called F6-1; not shown: human IgG4 Fc (VHH-hIgG4 Fc fusion)
B2: SLN6062 humanized VHH-Fc (Fc fusion)
chain: EVQLVESGGGLVQPGGSLRLSCAASVYTASCMGWFRQAPGKGLELVSTLNRNSGRTSYVGSVKGRFTISQDNSKKTLYLQMNSLRAEDTAVYYCAATWSWYSFTCPGDQNAYIHWGQGTLVTVSS
notes: tested as VHH-Fc; also called C8-9; not shown: human IgG4 Fc (VHH-hIgG4 Fc fusion)
B3: SLN-6068 humanized VHH-Fc (Fc fusion)
chain: EVQLVESGGGLVQPGGSLRLSCAASVYTSSTYYMAWFRQAPGKGREGVAAAYAGGGGTVYADSVKGRFTISQDNSKNTLYLQMNSLRAEDTAVYYCAARMSRLLGMAPLLPEHYDSWGQGTLVTVSS
notes: tested as VHH-Fc; also called C2-11; not shown: human IgG4 Fc (VHH-hIgG4 Fc fusion)
B4: SLN6065 humanized VHH-Fc (Fc fusion)
chain: EVQLVESGGGLVQPGGSLRLSCAASRDAYFNNYMAWFRQAPGKGLEGVSSIATNTGNDYYADSVKGRFTISRDNSKNTIYLQMNSLRAEDTAVYYCAAGWRGGSFWTPSKYSYWGQGTLVTVSS
notes: tested as VHH-Fc; also called D2-9; not shown: human IgG4 Fc (VHH-hIgG4 Fc fusion)
B5: SLN0072 VHH-OVA-His (VHH)
chain: EVQLVESGGGSVQAGGSLRLSCVASGYTGSSSYMGWFRQVPGKEREGVAQINSRSGSTYYADSVKGRFTISQDNAKNTVYLQMTSLKPEDTGMYYCAERFGPTFYPVPLGSNLYNYWGQGTQVTVSSGSIGAASMEFCFDVFKELKVHHANENIFYCPIAIMSALAMVYLGAKDSTRTQINKVVRFDKLPGFGDSIEAQCGTSVNVHSSLRDILNQITKPNDVYSFSLASRLYAEERYPILPEYLQCVKELYRGGLEPINFQTAADQARELINSWVESQTNGIIRNVLQPSSVDSQTAMVLVNAIVFKGLWEKAFKDEDTQAMPFRVTEQESKPVQMMYQIGLFRVASMASEKMKILELPFASGTMSMLVLLPDEVSGLEQLESIINFEKLTEWTSSNVMEERKIKVYLPRMKMEEKYNLTSVLMAMGITDVFSSSANLSGISSAESLKISQAVHAAHAEINEAGREVVGSAEAGVDAASVSEEFRADHPFLFCIKHIATNAVLFFGRCVSP
notes: Tested as recombinant VHH-OVA-His; not shown: His tag
B6: SLN0056 VHH-OVA-His (VHH)
chain: EVQLVESGGGSVQAGGSLRLSCRASGHAYGGNYMGWFRQAPGKEREGVAVLYTGGGSTYYADSVKGRFTISEDNAKNTVYLQMDSLKLEDTAMYYCALALGSARWYTSSLDARAYNIWGQGTQVTVSSGSIGAASMEFCFDVFKELKVHHANENIFYCPIAIMSALAMVYLGAKDSTRTQINKVVRFDKLPGFGDSIEAQCGTSVNVHSSLRDILNQITKPNDVYSFSLASRLYAEERYPILPEYLQCVKELYRGGLEPINFQTAADQARELINSWVESQTNGIIRNVLQPSSVDSQTAMVLVNAIVFKGLWEKAFKDEDTQAMPFRVTEQESKPVQMMYQIGLFRVASMASEKMKILELPFASGTMSMLVLLPDEVSGLEQLESIINFEKLTEWTSSNVMEERKIKVYLPRMKMEEKYNLTSVLMAMGITDVFSSSANLSGISSAESLKISQAVHAAHAEINEAGREVVGSAEAGVDAASVSEEFRADHPFLFCIKHIATNAVLFFGRCVSP
notes: as for B5
B7: SLN0065 VHH-OVA-His (VHH)
chain: EVQLVESGGGSVQAGGSLRLSCLYTDSLFWMGWFRQTPGNEREGVAVTGRDGSTIYADSVQGRFTISRDNAKNTLYLQMNSLKPDDTAMYYCAADQTRYSSLRLLAPNRSASWGQGTQVTVSSGSIGAASMEFCFDVFKELKVHHANENIFYCPIAIMSALAMVYLGAKDSTRTQINKVVRFDKLPGFGDSIEAQCGTSVNVHSSLRDILNQITKPNDVYSFSLASRLYAEERYPILPEYLQCVKELYRGGLEPINFQTAADQARELINSWVESQTNGIIRNVLQPSSVDSQTAMVLVNAIVFKGLWEKAFKDEDTQAMPFRVTEQESKPVQMMYQIGLFRVASMASEKMKILELPFASGTMSMLVLLPDEVSGLEQLESIINFEKLTEWTSSNVMEERKIKVYLPRMKMEEKYNLTSVLMAMGITDVFSSSANLSGISSAESLKISQAVHAAHAEINEAGREVVGSAEAGVDAASVSEEFRADHPFLFCIKHIATNAVLFFGRCVSP
notes: as for B5
B8: SLN0044 VHH-OVA-His (VHH)
chain: DVQLVESGGGSVQAGGSLRLSCAASIYTYSTACMAWFRQAPGKEREGVAAIARYGDTTYTDSVKGRFTISRDVAKNILYLQMSSLKPEDTAMYYCASKSPNSGCDEYAHYETFGQGTQVTVSSGSIGAASMEFCFDVFKELKVHHANENIFYCPIAIMSALAMVYLGAKDSTRTQINKVVRFDKLPGFGDSIEAQCGTSVNVHSSLRDILNQITKPNDVYSFSLASRLYAEERYPILPEYLQCVKELYRGGLEPINFQTAADQARELINSWVESQTNGIIRNVLQPSSVDSQTAMVLVNAIVFKGLWEKAFKDEDTQAMPFRVTEQESKPVQMMYQIGLFRVASMASEKMKILELPFASGTMSMLVLLPDEVSGLEQLESIINFEKLTEWTSSNVMEERKIKVYLPRMKMEEKYNLTSVLMAMGITDVFSSSANLSGISSAESLKISQAVHAAHAEINEAGREVVGSAEAGVDAASVSEEFRADHPFLFCIKHIATNAVLFFGRCVSP
notes: as for B5
B9: SLN0071 VHH-OVA-His (VHH)
chain: EVQLVESGGGSVQAGGSLRLSCAGSEYTYSRCCMGWFRQAPGKEREGVVSINVLGGTSYADSVKGRFTISRDNAENTLYLQMNSLKPEDTAMYYCAAGLASAPWRPCGTTTEEYKYWGQGTQVTVSSGSIGAASMEFCFDVFKELKVHHANENIFYCPIAIMSALAMVYLGAKDSTRTQINKVVRFDKLPGFGDSIEAQCGTSVNVHSSLRDILNQITKPNDVYSFSLASRLYAEERYPILPEYLQCVKELYRGGLEPINFQTAADQARELINSWVESQTNGIIRNVLQPSSVDSQTAMVLVNAIVFKGLWEKAFKDEDTQAMPFRVTEQESKPVQMMYQIGLFRVASMASEKMKILELPFASGTMSMLVLLPDEVSGLEQLESIINFEKLTEWTSSNVMEERKIKVYLPRMKMEEKYNLTSVLMAMGITDVFSSSANLSGISSAESLKISQAVHAAHAEINEAGREVVGSAEAGVDAASVSEEFRADHPFLFCIKHIATNAVLFFGRCVSP
notes: as for B5
B10: SLN0049 VHH-OVA-His (VHH)
chain: EVQLVESGGGSVQAGGSLRLSCAASRATNSRYSMGWFRQAPGKEREGVAAIDSIGRTSYADSVKGRFTISQDGAKNTLYLQMNSLKPEDTAMYYCAATAWRDWATLREYEYGYWGQGTQVTVSSGSIGAASMEFCFDVFKELKVHHANENIFYCPIAIMSALAMVYLGAKDSTRTQINKVVRFDKLPGFGDSIEAQCGTSVNVHSSLRDILNQITKPNDVYSFSLASRLYAEERYPILPEYLQCVKELYRGGLEPINFQTAADQARELINSWVESQTNGIIRNVLQPSSVDSQTAMVLVNAIVFKGLWEKAFKDEDTQAMPFRVTEQESKPVQMMYQIGLFRVASMASEKMKILELPFASGTMSMLVLLPDEVSGLEQLESIINFEKLTEWTSSNVMEERKIKVYLPRMKMEEKYNLTSVLMAMGITDVFSSSANLSGISSAESLKISQAVHAAHAEINEAGREVVGSAEAGVDAASVSEEFRADHPFLFCIKHIATNAVLFFGRCVSP
notes: as for B5

In the first assay the target is T1, human VEGFA121 (human, UniProt P15692-9 27-147, biotinylated).
T1 construct: Biotinylated; also called hVEGFA121; hVEGFA121-biotin
T1 sequence (looked up): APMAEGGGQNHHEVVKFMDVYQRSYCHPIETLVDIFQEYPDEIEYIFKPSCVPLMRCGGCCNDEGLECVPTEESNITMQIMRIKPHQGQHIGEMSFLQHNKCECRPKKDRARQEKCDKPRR
The assay can be described thus: target-binding ELISA on hVEGFA121, humanized VHH-Fc. Here is the method:
For binding ELISA, immunoplates were coated with 100 μl/well 1 μg/ml streptavidin and incubate at 4° C. overnight. Wells were washed with PBST for 3 times and blocked with 200 μl of 1% BSA/PBS at RT for 1 hr. Washed with PBST for 3 times and add hVEGFA121-biotin or mVEGFA120-biotin (0.1 μg/ml) 100 al/well and incubated at RT for 1 hr. Plates were washed with PBST for 3 times, 100 al/well 5-fold serially diluted VHH-Fcs from 2 μg/ml was added. and incubate at RT for 1 hr. Plates were washed with PBST for 3 times and add 100 al goat anti-human Fc-HRP (Sigma, A0170) diluted 1/5000 in 1% BSA/PBST to each well and incubate at RT for 1 hr. Plates were then washed as before and add 100 al TMB substrate and incubate at RT for 15 min. 100 al per well stop solution was added to stop the reaction, and the plates were read with microplate reader at 450 nm.
Four VHHs (C2, C8, F6, D2) were selected for humanization. Proceed with plasmid construction and protein production as above, the humanized VHH-Fc was characterized with target-binding (ELISA) and RBA.
In general terms: An ELISA detects its analyte on a solid surface through an enzyme-linked reagent.
Turning to B1, the binding result is “binds”.
Take B2: the binding result is reported as “binds”.
Same read-out and setting: the value for B3 was “binds”.
Still for that read-out and setting: the value for B4 was “binds”.

The target of another assay is T2, human transferrin receptor 1 on HEK293F-hTfR1 cells (human, UniProt P02786 1-760).
T2 construct: whole, on cells
T2 sequence (P02786 whole entry): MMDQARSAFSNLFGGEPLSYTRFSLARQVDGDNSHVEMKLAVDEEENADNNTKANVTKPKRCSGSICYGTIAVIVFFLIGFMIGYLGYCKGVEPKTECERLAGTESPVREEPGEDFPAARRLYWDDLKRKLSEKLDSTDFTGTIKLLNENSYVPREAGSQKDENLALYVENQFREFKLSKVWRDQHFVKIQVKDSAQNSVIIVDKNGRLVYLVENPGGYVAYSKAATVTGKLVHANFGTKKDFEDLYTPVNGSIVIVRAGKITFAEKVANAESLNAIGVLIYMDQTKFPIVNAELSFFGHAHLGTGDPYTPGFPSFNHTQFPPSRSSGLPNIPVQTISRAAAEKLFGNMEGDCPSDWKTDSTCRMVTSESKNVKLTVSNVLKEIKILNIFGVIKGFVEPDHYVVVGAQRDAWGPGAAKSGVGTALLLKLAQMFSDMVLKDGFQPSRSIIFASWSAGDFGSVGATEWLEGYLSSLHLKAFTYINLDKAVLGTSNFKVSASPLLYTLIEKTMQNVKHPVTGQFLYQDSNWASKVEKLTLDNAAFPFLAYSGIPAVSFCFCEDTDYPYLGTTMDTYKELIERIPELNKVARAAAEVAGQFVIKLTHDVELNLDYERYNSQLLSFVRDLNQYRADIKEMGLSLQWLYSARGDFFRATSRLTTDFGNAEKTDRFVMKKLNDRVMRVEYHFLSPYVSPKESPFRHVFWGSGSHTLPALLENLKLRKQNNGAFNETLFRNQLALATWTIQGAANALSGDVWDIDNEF
The assay can be described thus: flow cytometry on HEK293F-hTfR1 cells with or without transferrin. As to the method:
(§1) HEK293F-hTfR1 cells were prepared by transfecting hTfR1-expressing plasmid, with a GFP tag, into HEK293F cells. Stable pool was used for this assay. Briefly, the engineered HEK293F cells expressing hTfR1 were cultured with OPM-293 CD05 medium at 37° C., with 8% CO₂ and saturated humidity in cell shaker. […] The cells were washed twice by centrifugation at 300 g for 5 min at 4° C., before rabbit anti-OVA antibodies and a secondary anti-rabbit IgG-AF647 (all prepared in blocking buffer). The cells were scanned with CytoFLEX (Beckman).
In general terms: In flow cytometry, cells or beads pass a laser one at a time.
With B5, the binding result is listed as “no binding (tested: 10 µg/mL)”.
In the case of B6, the binding result is on record as “no binding (tested: 10 µg/mL)”.
Still for that read-out and setting: the value for B7 was “no binding (tested: 10 µg/mL)”; that for B8 was “no binding (tested: 10 µg/mL)”.
Same read-out and setting: the value for B9 was “no binding (tested: 10 µg/mL)”; that for B10 was “no binding (tested: 10 µg/mL)”.

The target of another assay is T3, human transferrin (Sigma T3309) (human, UniProt P02787 20-698).
T3 construct: mature; same polypeptide; also called native human transferrin; hTf
T3 sequence (P02787 20-698): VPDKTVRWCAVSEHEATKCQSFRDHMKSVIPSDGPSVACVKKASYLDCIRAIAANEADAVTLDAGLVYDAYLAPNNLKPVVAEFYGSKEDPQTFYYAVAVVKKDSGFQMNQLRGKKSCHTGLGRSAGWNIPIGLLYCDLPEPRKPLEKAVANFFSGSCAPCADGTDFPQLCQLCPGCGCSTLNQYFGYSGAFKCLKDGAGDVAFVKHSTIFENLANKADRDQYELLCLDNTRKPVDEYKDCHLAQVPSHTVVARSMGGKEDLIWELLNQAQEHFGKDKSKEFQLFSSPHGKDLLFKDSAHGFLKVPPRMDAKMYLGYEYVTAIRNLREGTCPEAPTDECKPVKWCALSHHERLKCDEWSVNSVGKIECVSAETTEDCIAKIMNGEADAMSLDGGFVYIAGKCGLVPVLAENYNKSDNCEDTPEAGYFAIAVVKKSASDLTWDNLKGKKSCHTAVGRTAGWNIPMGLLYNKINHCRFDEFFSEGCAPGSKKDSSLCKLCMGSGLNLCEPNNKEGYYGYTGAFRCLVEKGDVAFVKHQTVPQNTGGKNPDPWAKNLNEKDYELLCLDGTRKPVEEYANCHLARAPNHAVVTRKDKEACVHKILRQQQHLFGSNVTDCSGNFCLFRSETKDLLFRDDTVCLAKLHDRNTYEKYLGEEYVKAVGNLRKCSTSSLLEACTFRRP
The assay can be described thus: flow cytometry on HEK293F-hTfR1 cells with human transferrin, pH 6.0; grade by % binding (+++ ≥ 15%). Here is the method: as §1
In the case of B5, the “percent binding (flow cytometry, VHH/Tf on hTfR1-overexpressing cells, pH 6.0)” value is at least 15%.
Still for that read-out and setting: the value for B6 was at least 15%.
Still for that read-out and setting: the result for B8 reads at least 15%; that for B10, at least 15%.

The next assay concerns the target T3, human transferrin (Sigma T3309). Description: flow cytometry on HEK293F-hTfR1 cells with human transferrin, pH 7.4; grade by % binding (10% > + ≥ 5%). As to the method: as §1
B7: the “percent binding (flow cytometry, VHH/Tf on hTfR1-overexpressing cells, pH 7.4)” value was 5 to 10%.
With B9, the “percent binding (flow cytometry, VHH/Tf on hTfR1-overexpressing cells, pH 7.4)” value was 5 to 10%.

A further assay shares this target. Description: flow cytometry on HEK293F-hTfR1 cells with human transferrin, pH 7.4; grade by % binding (+++ ≥ 15%). As to the method: as §1
In the case of B5, the “percent binding (flow cytometry, VHH/Tf on hTfR1-overexpressing cells, pH 7.4)” value was at least 15%.
The same measure, in the same setting: the result for B6 reads at least 15%.
Same read-out and setting: the result for B10 reads at least 15%.
